This is an account of results in publication doi:10.1101/2023.03.31.534734 (bioRxiv, 2023).

This test addresses recombinant, non-biotinylated HLA-A*01:01 (α-chain, β2m, peptide […]) (Homo sapiens, HLA-A*01:01; peptide from …, strain). In words: crystal structure.

B1: Fab of rmAb E07 (Fab, V domains shown)
VH: QVQLQESGGGVVQPGGSLRLSCAASGFNFSNYGMHWVRQTPGKGLEWVASIPYDGSHQWHADSVKGRFTISRDNSKNTLYLQINSLRPEDTAMYYCSKARISYLSAPAWWFDPWGQGTLVTVSS
VL: QSVSTQPPSVSVAPGQTARITCGGNNIGSKSVHWYRQKPGQAPVLVVYDNNARPSGIPERISGSNFANTATLTISRVEAGDEADYYCHVWDSSSDHVVFGGGTKLTVL
On to B1, for which the binding result is listed as “binds”.
